Results taken from patent US20220348652A1 (ANTAIMMU BIOMED, published 2022).

Biological target: T1, human CD47 expressed on CHO-CD47 cells (human, UniProt Q08722 19-323)
T1 construct: whole, on cells; also called cellular CD47; full-length CD47
Experiment: flow cytometry, IgG on CHO-CD47 cells
Protocol: The anti-CD47 scFvs were respectively expressed in their IgG formats in accordance with the procedure described in Materials and Methods. CHO cells expressing CD47 (CHO-CD47 cells) and wild-type CHO cells (CHO-WT cells) were respectively treated with anti-CD47 IgGs. After washing, the binding of the anti-CD47 IgGs was detected using a polyclonal APC-conjugated anti-human IgG antibody. Relative MFI was measured by flow cytometry. Antibody R23, a reference antibody constructed according to the sequences of ADI29341 disclosed in US20200181259A1, served as a positive control in this study.

Binder	EC50 [µg/mL]
CD47-26 IgG (antibody, V domains shown, IgG made in CHO cells; constant domains as for m19; also called antibody CD47-26) VH: EVQLVESGGGLVQPGGSLRLSCAASGFTITNFYIHWVRQAPGKGLEWVAKITPYNGDTHYADSVKGRFTISADTSKNTAYLQMNSLRAEDTAVYYCTRGGYAMDYWGQGTLVTVSS VL: DIQMTQSPSSLSASVGDRVTITCRASQDVSNYVAWYQQKPGKAPKLLIYGTSRLYPGVPSRFSGSGSGTDFTLTISSLQPEDFATYYCQQHSSYPLTFGQGTKVEIKR	2.05
CD47-30 IgG (antibody, V domains shown, IgG made in CHO cells; constant domains as for m19; also called antibody CD47-30) VH: EVQLVESGGGLVQPGGSLRLSCAASGFTINNWWIHWVRQAPGKGLEWVAWIDPFNGDSDYADSVKGRFTISADTSKNTAYLQMNSLRAEDTAVYYCARGGFALDHWGQGTLVTVSS VL: DIQMTQSPSSLSASVGDRVTITCRASQDVSHYVAWYQQKPGKAPKLLIYSTSRLYPGVPSRFSGSGSGTDFTLTISSLQPEDFATYYCQQHSSYPITFGQGTKVEIKR	2.67
